Consider 4 substances from paper PMC11640050.

The experiment has as its target Rictor (R28 cells). Kind of experiment: co-IP (Rictor IP) with DSP crosslinker, western blot band quantification. The conditions noted are these: TNF+HG treatment.
In the case of “3X-FLAG-tagged wild-type HSPB4 (αA-crystallin) (from UniProt P02489) T148D”, the ratio to parent is 0.11. To “3X-FLAG-tagged wild-type HSPB4 (αA-crystallin) (from UniProt P02489) T148A” belongs 0.75; to “3X-FLAG-tagged wild-type HSPB4 (αA-crystallin) (from UniProt P02489) R49A”, 0.26; to “3X-FLAG-tagged wild-type HSPB4 (αA-crystallin) (from UniProt P02489) R21A”, 0.35.
